Measured values: publication PMC5087487, “A Graphene Oxide-Based Fluorescent Method for the Detection of Human Chorionic Gonadotropin” (Sensors (Basel, Switzerland), 2016)
Ends that are not written are not given here. * marks the point of attachment. FITC = O=C1OC2(c3ccc(O)cc3Oc3cc(O)ccc32)c2ccc(NC(=S)*)cc21

Target: T1, Human chorionic gonadotropin (human, UniProt P01215 25-116; P0DN86 21-165)
T1 construct: glycoprotein hormones alpha chain of human chorionic gonadotropin; beta subunit of human chorionic gonadotropin; Glycoprotein hormone; also called hCG; source: bought: Sigma-Aldrich
T1 sequence (P01215 25-116, chain 1 of 2, other chains not shown): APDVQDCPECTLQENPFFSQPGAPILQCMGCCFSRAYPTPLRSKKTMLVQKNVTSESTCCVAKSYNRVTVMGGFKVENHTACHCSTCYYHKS
Assay: other fluorescence titration; 50 nM FITC-peptide first adsorbed on graphene oxide (2 ug/mL, 10 min, fluorescence quenched); protein added, 15 min at room temperature, PBS 20 mM pH 7.2; recovery of fluorescence (excitation 470 nm, emission 518 nm) on release of the peptide from GO
Settings: both partners purified

B1: FITC-labeled hCG-specific binding peptide aptamer FITC-PPLRINRHILTR (peptide)
peptide: {FITC}-PPLRINRHILTR
notes: In the assay the peptide was first adsorbed onto graphene oxide (GO); also called peptide probe; source: synthetic peptide; bought: Synpeptide Co., Ltd
binding result: binds
